Experimental data published in patent publication US20150351390A1, “COMPOSITIONS AND METHODS FOR AUXIN-ANALOG CONJUGATION” (PIONEER HI-BRED INTERNATIONAL, INC., priority 2012, published 2015).

B1: VvGH3-6: GH3 protein, accession XP_002268278 (protein, listed as Vitis vinifera)
chain: MLLSCDPHDNEAGLMLLEDLTTNANQVQLEVLEEILTQNANTEYLRGYLDGHSDKGLFKKKVPIVNYEDIKPHIERIANGEPSRIISAQPITELLTSSGTSGGQPKLMPSTAEDLDRKTFFYNLLIPVMNKYVDGLDQGKGMYLLFIKPEISTPSGLMARPVLTSYYKSSNFRNRPFNPFNVYTSPDETILCLDSKQSMYCQLLCGLVQRDEVLRVGAVFASAFLRAIKFLEDHWRELCSNIRTGCVSDWITDPSCRNAVSSFLSKPQPDLADFIEFECNGESWEGIIKRLWPRTKYIEVIVTGSMAQYIPTLEFYSGGLPLVSTMYASSECYYGINLKPLSKPSDVSYTLLPNMAYFEFLPVQKNNGEVTQQVQCNGGCIKKEGERVEIEVVGLVDVKVGHYYELVVTTFTGLYRYRTGDILMVTGFYNNAPQFRFVQRRNVVLSIDTDKTNEEDLLKAVTQAKLLLEPYGFLLTEYTSYADTSSIPGHYVLFWELKTRGNNDLSEPDHTIMEQCCSTVEESLDSVYRRCRRRDNSIGPLEIRIVKPGTFDALMDFCVSQGSSVNQYKTPRCIKSKEAIKILDSRVVGKVFSKKVPFWEPFKMETK
B2: VvGH3-4: GH3 protein, accession XP_002263353 (protein, listed as Vitis vinifera)
chain: MEGKRLEYRGEEALKELEKFTAKADEVQENILKEIIARNCETEYLKKYMGGSKDVLEFKQSVPVITYKDIHPYIQRIANGEDSSLISGHPITEMLCSSGTSGGEPKMMPSIAEDLNRRTFLYNLIMPIMNQYIPGLDEGKAMFLYFVKAEMSTPCGLPARAVLTSYYKSKNFRCRVRDAFNDFTSPDQAILCTDSNQSMYCQLLAGLVHRHQVLRLGAVFASALLRAISFLERHWVHLCNDIRTGHLDSSITDPECRSSMSTILSSPNPHLADEIEEICSHPSWKGMLSQLWPRAKYIEAVITGSMAQYIPSLEYYSGGKLPLVCTMYASSECYFGVNMKPLCDPADVAFTLLPNMCYFEFIPLGENGTLLMDMDEEKGVPKEKLVDLVHVRLGCYYELVVTTFAGLNRYRIGDVLQVTGFHNRAPQFRFICRRNVVLSIDNDKTNEEDLHRSITMAKKLLEPYNALLVEYTSYADTSSLPGHYVLYWEITHCISTDSPSTPLDSKVLEECCIAVEEELDYIYRRCRTHDKSVGPLEIRLVQPGTFEDLMDLFISQGGSINQYKTPRCIKSSNALKLLNSNVEASFFSPRDPRWIP
B3: AtGH3-15: GH3 protein, accession CAB87144 (protein, listed as Arabidopsis thaliana)
chain: MLPKFDPTNQKACLSLLEDLTTNVKQIQDSVLEAILSRNAQTEYLRGFLNGQVDKQNFKKNVPVVTYEDIRSYIDRIANGEPSDLICDRPISVLLTSSGTSGGVPKLIPLTTEDLEQRISFSSLYAPLLYKHIDGLSEGKSLIFYFVTRESKTANGDSLQVSPHAITTCADTTQSMYCQLLCGLLERDNVARLGAPFASSFLKVIKFLEDHWPELCSNIRTGRLSDWITDATCTSGIGKFLTAPNPELASLIEQECSKTSWEAILKRLWPKAKCIESIITGTMAQYIPLLEFYSGGLPLTSSFYGSSECFMGVNFNPLCKPSDVSYTIIPCMGYFEFLEVEKDHQEAGHDPTEKPVVVDLVDVKIGHDYEPVVTTFSGLYRYRVGDVLRATGFYNNAPHFCFVGRQKVVLSIDMDKTYEDDLLKAVTNAKLLLEPHDLMLMDFTSRVDSSSFPGHYVIYWELGSKVKDAKFEPNRDVMEECCFTVEESLDAVYRKGRKNDKNIGPLEIKVVKPGAFDELMNFFLSRGSSVSQYKTPRSVTNEEALKILEANVISEFLSRKIPSWELHELHSGR
B4: OsGH3-2: GH3 protein, accession BAF06259 (protein, listed as Oryza sativa)
chain: MAPAAVAAAEAGSKAAAVAGKAVAACERDAEKLEFIEEMTRGFDAVQERVLAAILARNNGAEYLRRHGMEGRTDREAFKARVPVVTYEDLRPEIERIANGDRSNIISSHPITEFLTSSGTSAGERKLMPTIEDELDRRQMLYSLLMPVMNLYVPGLDKGKGLYFLFIKSETKTPGGLPARPVLTSYYKSDHFKHRPFDPYNVYTSPTAAILCTDAFQSMYAQMLCGLVARAEVLRVGAVFASGLLRAIRFLQLHWRELAHDIRTGTLSAKVTEPSIRDAVAEVLAAPDAELAAFVEAECGKDKWEGIITRMWPNTKYLDVIVTGAMAQYIPTLKFYSGGLPMACTMYASSECYFGLNLRPMCDPSEVSYTIMPNMGYFELMPHDPDAPPLPRDAPPPRLVDLADAEVGREYELVITTYAGLCRYRVGDILQVTGFHNAAPQFRFVRRKNVLLSIDSDKTDEAELQAAVERASALLSPYGASIVEYTSQADATTIPGHYVVYWELMVREGGAWPPPAEEEGRGVFERCCLEMEEALNAVYRQGRNGEAIGPLEIRVVRAGTFEEVMDYAISRGASINQYKAPRCVSFGPIIELLNSRVISKHFSPACPKYSPHKK
B5: OsGH3-6: GH3 protein, accession Q60EY1 (protein, listed as Oryza sativa)
chain: MAATAWGIRSSGIRGASPVMSACVSPAEVILGADHQQQMYCHLLCGLRRWDAVDCIRAPYAAALARALRLLQSKWRQLCDDLECGTVCADVVTDAAMRGAVQDGVLAGPCPELAGRVRRICERDDWRGVLRQLWPDARYISCVTTGTMEQYFPAIKHFAGEALPVLGTDYLASECAIGINLERTSPPEETTYVLLPRAAYFEFIPFDMDAAGRGAAAAEPVDIAGVEAGKTYELVATTFRGLYRYKVGDVVKIAGFHHSSPRLQFVTRAPPPQEHGEVLTERDVMAAMDTFQLMLKDGGEVIEFAAFIIDGDGGQRRRRCATIAVEVSNGSKLLDHERSAAFLRRCTAPLEGCLGGAYRLSRATGDVAPLEVAVVRPGTFDRLAEAAIRGGAPANQYKPPRSSGTGTSSMCCNPPWCAAAAQSLNQLLTSICLIVSLNQRQFLDRESNSGTDKVFISDSILNFQHWGGFSLRFDLQEESLTLYKDHPS
B6: AIGH3-12 (protein, listed as Arabidopsis lyrata)
chain: MKPISDINESFEKQLKYLTSDVKQIQDNLLEEIITPNTKTEYLQRFLIGRFDKDLFKKNVPIVTYEDIKPYLDRVVNGESSDVISARPITGFLLSSGTSGGAQKMMPWNNKYLDNLTFIYDLRMQVITKHVKGVEEGKGMMFLFTKQESMTPSGLPARVATSSYFKSDYFKHRPSNWYYSYTSPDEVILCPNNTQSLYCHLLCGLVQRDEVVRTGSIFASVMVRAIEVLKNSWEELCSNIRSGHLSNWVTDLGCQSSVSLVLGGPRPELADTIEEICNQKSWKGIVKRLWPNTKYIETVVTGSMGQYVPMLNYYCNDLPLVSTTYGSSETTFGINLDPLCKPEDVSYTFMPNMSYFEFIPMDGDNNDVVDLEDVKLGCTYEPVVTNFAGLYRMRVGDIVLVTGFYNNAPQFKFVRRENVVLSIDSDKTNEEDLFKAVSQAKLVLESSGLDLKDFTSYADTSTFPGHYVVYLEVDTKEGEEKKTAQFELDEEALSMCCLVMEESLDNVYKRCRFKDGSIGPLEIRVVRQGTFISLMDFFISQGASTGQYKTPRCIKSGKALQVLETCVVAKFFSS
B7: OsGH3-1: GH3 protein, accession Q8LQM5 (protein, listed as Oryza sativa)
chain: MPEAPTAKTAPAYGYAPGAHAEALEFIEHVTANAGQVQRRVLGEILAQNAPAEYLRRYGIPGSPDVVDAFRRLVPLVTYEGLQPDILRIANGDTSPIFSGKPISEFLTSSGTSGGERKLMPTIADEMNRRSLLYSLLMPVMSQSVSGLDKGKAMYLLFVKAESRTPGGLAARPVLTSYYRSRQFLDRPRDPYTSYTSPDEAILCVDSYQSMYAQLLCGLVHRADVLRVGAVFASGFLRAIHFLEKHWARLCHDIRTGELDPEITDRVVRDAVGRVLRADPALADAIEDECARASWEGIIRRLWPRTKYIDVIVTGTMSQYIPTLEFYGGGLPLTCTMYASSECYFGLNLNPMCKPSDVAYTLIPTMCYYEFLPVNCNNATAEASHRDLVDLVDVKLGHEYELVVTTYSGLYRYRVGDVLRVAGFKNKAPMFSFVRRQNVALSVDSDKTDETELHAAVSGAVQHLAPFGASLVEYTSYADAATIPGHYVLFWELRAGSTAVPASVFEECCLSVEEALNSVYRQGRACDRSIGPLEIRVVAEGTFDKLMDYAISRGASINQYKAPRCVRPGPVVELLDARVQGKYFSPKCPKWSPGNKQWNKSKDLVGKGDA
B8: AIGH3-7 (protein, listed as Arabidopsis lyrata)
chain: VLEDLTSNVTQLQDNEILTLNANTNYLQSFFRGRFDKEIFKKNVPVVTYDDPSNVISAQPITGFVLSSGTSGGAQKMMPWNEKYLDSCMIFGCINVKNVEKGKAMMFYFTKLESITPSGLPARVASSSYLKSNYFKNRPSNWYYTYTSPDELTLCPDNKQNLYCHLLCGLVQRNEVTRMGSIFASVMKELWSNIRSGQLSEWITDIVANTIEKICNQKCWKGIVTRLWPKAKYIETIVTGSMVQYVPTLNYYSNDMLPLISTIYASSETQFGLNLNPMCKPEDVSYTFMPNVSYFEFIPVDGDKNNVVDLADVKLGCSYEAVVTNFRIRVGDILVVTGFHNKAPQFRFIRRDNVVLSIDLDKTNEDDLFKAVNRGKLTLDSSDLMLAMLISPLSRDKNKDKKSKKHIELKQETFSECCLLMEDSLDEVYKNCRFKEEWTFDSLMDFFISQGASIGQYKTPRCIKSAKALEVIEKMW

Columns and labels:
[1] = LC-MS assay of GH3 conjugation of IAA with Asp or Glu; type: biochemical; conditions: for kcat (hrs−1) IAA-Asp: conjugation of IAA with Asp by recombinant GH3 protein, IAA-Asp product by LC-MS; for kcat (hrs−1) IAA-Glu: conjugation of IAA with Glu by recombinant GH3 protein, IAA-Glu product by LC-MS
In short: (§1)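 Rxn: 20 mM Tris-HCl pH 8.0, 5 mM MgCl2, 1 mM DTT, 5 mM ATP, 5 mM auxin, 5 mM Asp/Glu, 44–164 μg/mL purified His-GH3; 30° C., 3 h. MeOH quench, supernatant diluted 20×, LC-MS vs conjugate standards.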

[2] = LC-MS assay of GH3 conjugation of 2,4-D with Asp or Glu; type: biochemical; conditions: 5 mM 2,4-D substrate; for kcat (hrs−1) 2,4-D-Asp: conjugation of 2,4-D with Asp by recombinant GH3 protein, 2,4-D-Asp product by LC-MS; for kcat (hrs−1) 2,4-D-Glu: conjugation of 2,4-D with Glu by recombinant GH3 protein, 2,4-D-Glu product by LC-MS
In short: as §1

Molecule	kcat (hrs−1) IAA-Asp [1] [h⁻¹]	kcat (hrs−1) IAA-Glu [1] [h⁻¹]	kcat (hrs−1) 2,4-D-Asp [2] [h⁻¹]	kcat (hrs−1) 2,4-D-Glu [2] [h⁻¹]
B1	111.443	505.272	0.385	1.204
B2	3.873	16.309	0.000	0.018
B3	0.000	0.000	0.000	0.000
B4	664.242	42.295	1.548	0.401
B5	0.000	0.000	0.000	0.000
B6	0.000	12.925	0.006	0.057
B7	633.605	33.412	0.937	0.207
B8	0.000	0.000	0.000	0.000
